B1: NXF1^ΔNΔUBA:NXT1 complex (complex, human)
chain 1: VRRDRAPPERGGAGTSQDGTSKNWFKITIPYGRKYDKAWLLSMIQSKCSVPFTPIEFHYENTRAQFFVEDASTASALKAVNYKILDRENRRISIIINSSAPPHTILNELKPEQVEQLKLIMSKRYDGSQQALDLKGLRSDPDLVAQNIDVVLNRRSCMAATLRIIEENIPELLSLNLSNNRLYRLDDMSSIVQKAPNLKILNLSGNELKSERELDKIKGLKLEELWLDGNSLCDTFRDQSTYISAIRERFPKLLRLDGHELPPPIAFDVEAPTTLPPCKGSYFGTENLKSLVLHFLQQYYAIYDSGDRQGLLDAYHDGACCSLSIPFIPQNPARSSLAEYFKDSRNVKKLKDPTLRFRLLKHTRLNVVAFLNELPKTQHDVNSFVVDISAQTSTLLCFSVNGVFKEVDGKSRDSLRAFTRTFIAVPASNSGLCIVNDELFVRNASSEEIQRAFAMPAPTP
chain 2: ASVDFKTYVDQACRAAEEFVNVYYTTMDKRRRLLSRLYMGTATLVWNGNAVSGQESLSEFFEMLPSSEFQISVVDCQPVHDEATPSQTTVLVVICGSVKFEGNKQRDFNQNFILTAQASPSNTVWKIASDCFRFQDWAS
notes: also called NXF1:NXT1; TAP:p15

How the values were obtained:
[1] = test system: NXF1ΔNΔUBA+3A;NXT1 (p15) (Homo sapiens;Homo sapiens); assay: ITC
[2] = target: the molecule itself; assay: crystal structure; crystals of the purified NXF1^ΔNΔUBA:NXT1 complex, 18°C, 9% PEG 6000, 1 M LiCl, 0.1 M Na citrate pH 5.1; P1, 3.4 Å, two copies of the complex in the asymmetric unit

Row | Molecule | binding signal (fold weaker than wild type) [1] | stoichiometry N [2]
1 | full-length CTE-RNA | 2.5 | 
2 | B1 |  | 2
